Data reported in patent US20090270312A1, “HIV-I GP41 FUSION PEPTIDES FOR IMMUNOMODULALTION” (priority 2005, published 2009).

Biological target: TCR on the membrane of A2b T cells (rat)
Experiment: acceptor-photobleaching FRET; distance is between Rho on the peptide and FITC on the anti-TCR antibody

Binder AVGIGALFLGFLGAAGSTMGARSMTLTVQARQL (modifications not checked) [FP (full length) conjugated to Rhodamine] has a donor-acceptor distance inferred from FRET of less than 50 Å.
